According to article PMC7042235:

Molecular target: microtubules (polymerized porcine tubulin) (porcine) (UniProt P02550)
Experiment: co-sedimentation; purified MTBDs (1-32 uM) mixed with 5 uM paclitaxel-stabilised porcine MTs; 100 mM PIPES pH 6.8, 50 mM NaCl, 2 mM MgCl2, 1 mM EGTA; 210,000 x g, 25 °C, 10 min; pellets on SDS-PAGE, densitometry, one-site curve fitting

**Q.** How did the Kd turn out when “MTBD-High, MTBD(I3101C/V3222C) (from UniProt P36022 3096-3232) (domain or fragment)” was run?
**A.** 4.8 µM
